Measurements reported in publication PMC2674534.

Target: Sox9 (UniProt Q04887 1-507)
Test: EMSA

Sequence of Sox9 (Q04887 whole entry): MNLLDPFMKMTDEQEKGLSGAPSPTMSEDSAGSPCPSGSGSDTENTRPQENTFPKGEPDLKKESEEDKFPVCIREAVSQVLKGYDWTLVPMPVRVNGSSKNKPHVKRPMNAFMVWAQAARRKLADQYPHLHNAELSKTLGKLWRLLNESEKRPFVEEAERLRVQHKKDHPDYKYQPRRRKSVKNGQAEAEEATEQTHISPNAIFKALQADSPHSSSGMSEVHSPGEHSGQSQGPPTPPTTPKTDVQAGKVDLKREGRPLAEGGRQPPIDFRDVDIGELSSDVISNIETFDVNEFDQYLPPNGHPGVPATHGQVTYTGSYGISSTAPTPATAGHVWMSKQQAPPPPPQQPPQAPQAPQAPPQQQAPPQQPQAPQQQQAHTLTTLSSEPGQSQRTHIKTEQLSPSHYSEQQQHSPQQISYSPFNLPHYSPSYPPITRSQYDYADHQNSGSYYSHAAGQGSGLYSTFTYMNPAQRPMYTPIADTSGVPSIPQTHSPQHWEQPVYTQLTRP

B1: Col2a1 enhancer probe (Sox9-binding site) (dsDNA)
DNA 1: GCGCTTGAGAAAAGCCCCATTCATGAGAGGC
DNA 2: GCCTCTCATGAATGGGGCTTTTCTCAAGCGC
- binding result: binds
